Patent US20060204496A1 (published 2006)

B1: AR1-24 (anti-AR1 chain scFv clone) (scFv, V domains shown)
VH: QVQLQQSGPELEKPGASVKISCKASGYSFSDYNMNWVKQSNGKSLEWIGNIDPYNGDTNYNQKFKGKATLTLDKSSSTAYMQLKSLTSEDSAVYFCARSRGWLLPFAYWGQGTLVTVSA
VL: DILMTQSQKFMSTSVGDRVSVTCKASQNVGINVAWYQQKPGQSPKALIYSASYRYSGVPDRFTGSGSGTDFTLTISNVQSEDLAEYFCQQYNSYPLTFGGGTKLEIKR
notes: scFv fused to f1 phage gene 3 product on phage in the ELISA
B2: AR1-41 (anti-AR1 chain scFv clone) (scFv, V domains shown)
VH: QVQLKQSGAELVRPGASVRLSCKASGYTFTFYWINWIKQRPEQGLEWIGRIDPYDSETRYNQKFKDKAILTVDKYSSTAYMQLSSLTSEDSAVYYCAKGVYDGHWFFDVWGAGTSVTVSS
VL: DIVMTQSHKFMSTSVGDRVSITCKASQDVSTAVAWYQQKPGQSPKLLIYSASYRYTGVPARFSGSGSGTDFTFTISSVQTEDLAVYYCQQHYRTPPTFGGGTKLELKR
notes: In the phage ELISA it stood as a mouse scFv fused to the f1 phage gene 3 product on phage
B3: AR2-13 (anti-AR2 chain scFv clone) (scFv, V domains shown)
VH: QVQLQQSGGELVRPGTSVKVSCKASGYAFTNYLIEWVKQRPGQGLDWIGMINPGSGGTKCNKKFKGKVTLTADKSSSTAYMHLSSLTSDDSAVYFCARSGWVSAMDYWGQGTSVTVSS
VL: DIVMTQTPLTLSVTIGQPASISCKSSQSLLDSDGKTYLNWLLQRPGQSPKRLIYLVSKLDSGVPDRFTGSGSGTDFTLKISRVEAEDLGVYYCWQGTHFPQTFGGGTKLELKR
notes: as for B1
B4: AR2-45 (anti-AR2 chain scFv clone) (scFv, V domains shown)
VH: QVQLQQSGVELVRPGTSVKVSCKASGYAFTNYLIEWVKQRPGQGLDWIGMINPGSGGTKCNKKFKGKVTLTADKSSSTAYMHLSSLTSDDSAVYFCARSGWVYAMDYWGQGTSVTVSS
VL: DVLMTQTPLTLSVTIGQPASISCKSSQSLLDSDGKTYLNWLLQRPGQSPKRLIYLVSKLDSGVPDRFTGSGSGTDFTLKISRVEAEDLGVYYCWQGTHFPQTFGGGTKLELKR
notes: as for B1
B5: AR2-37 (anti-AR2 chain scFv clone) (scFv, V domains shown)
VH: QVQLQQSGPELVRPGVSVKISCKGSGYTFTDYAIHWVRQSHAQSLEWIGVIGTYSGNRNYNQKFKGKATMTVDKSSSTAYMELARLTSEDSAIYYCARSAGYSLDFWGQGTSVTVSS
VL: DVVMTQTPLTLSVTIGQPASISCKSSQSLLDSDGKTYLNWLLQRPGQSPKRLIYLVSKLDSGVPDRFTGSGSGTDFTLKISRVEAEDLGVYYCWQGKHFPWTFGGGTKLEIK
notes: as for B1
B6: AR2-44 (anti-AR2 chain scFv clone) (scFv, V domains shown)
VH: QVQLQQSEAELVRPETSVKVSCKASGYSFRNYLIEWVKQRPGQGLEWIGVINPGSGNTKYNEKFKGKATLTADKSSSTAYMQLSSLTSDDSAVYFCARDGYYLGTMDYWGQGTSVTVSS
VL: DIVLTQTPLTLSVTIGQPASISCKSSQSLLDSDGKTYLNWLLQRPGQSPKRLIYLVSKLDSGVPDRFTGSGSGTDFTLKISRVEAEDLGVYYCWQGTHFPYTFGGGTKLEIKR
notes: as for B1
B7: AR2-33 (anti-AR2 chain scFv clone) (scFv, V domains shown)
VH: QVQLQQSGAELVRPGTSVKVSCKASGYAFINNLIEWVQQRPGQGLEWIGVINPGSGNVKYNEKFKGKATLTADKSSSTAYMQLSSLTSDDSAVYFCARDGYYLGTMDHWGQGTSVTVSS
VL: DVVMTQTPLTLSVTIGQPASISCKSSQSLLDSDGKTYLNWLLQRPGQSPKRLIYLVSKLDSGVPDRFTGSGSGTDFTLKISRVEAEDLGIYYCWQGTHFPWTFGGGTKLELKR
notes: as for B1
B8: AR2-14 (anti-AR2 chain scFv clone) (scFv, V domains shown)
VH: QVQLQQSGAELVRPGTSVKVSCKASGYAFTNYLIEWVKQRPGQGPEWIGVINPGSGNIRYNGKFKGKATLTADKSSSTAYMQLSSLTSDDSAVYFCARDAYYVGAMDYWGQGTSVTVSS
VL: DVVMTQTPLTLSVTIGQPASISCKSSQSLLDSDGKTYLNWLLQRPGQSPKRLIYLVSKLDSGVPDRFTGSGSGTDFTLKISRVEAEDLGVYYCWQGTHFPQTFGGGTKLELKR
notes: as for B1
B9: AR2-22 (anti-AR2 chain scFv clone) (scFv, V domains shown)
VH: QVQLQQSGPELVRPGVSVKISCKGSGYRFTDYAIHWVKQSHAKSLEWIGVISTYYGNTRYNQKFKGKATMTVDKSSSTAYMELASLTSEDSVIYYCARSGGSLMDYWGQGTSVTVSS
VL: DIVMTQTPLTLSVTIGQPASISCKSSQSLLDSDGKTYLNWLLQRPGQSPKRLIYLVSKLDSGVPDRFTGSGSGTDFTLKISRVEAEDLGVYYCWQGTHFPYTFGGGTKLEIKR
notes: as for B1
B10: AR2-40 (anti-AR2 chain scFv clone) (scFv, V domains shown)
VH: QVQLQQSGPELVRPGVSVKISCKGSSYKFTDYAMHWVKQSHAKSLEWIGVISTYYGNVKYNQKFKGKATMTVDKSSSTAYMELARLTSEDSAVYYCARSSGSYLDYWGQGTSVTVSS
VL: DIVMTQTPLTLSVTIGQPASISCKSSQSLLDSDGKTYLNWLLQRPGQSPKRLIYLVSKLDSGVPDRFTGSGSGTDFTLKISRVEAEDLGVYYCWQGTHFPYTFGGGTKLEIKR
notes: as for B1
B11: AR2-43 (anti-AR2 chain scFv clone) (scFv, V domains shown)
VH: QVQLQQSGPELVRPGVSVKISCKGSGYTFTDYAMHWVKQSHAKSLEWIGVISTYYSNTRYNQKFKGKATMTVDKSSSTAYMELARLTSEDSAIYYCVRSGGSNMDYWGQGTSVTVSS
VL: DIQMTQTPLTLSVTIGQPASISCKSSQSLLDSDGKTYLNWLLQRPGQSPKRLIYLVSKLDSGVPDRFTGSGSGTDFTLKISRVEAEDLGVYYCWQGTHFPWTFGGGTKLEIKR
notes: as for B1
B12: AR2-31 (anti-AR2 chain scFv clone) (scFv, V domains shown)
VH: EVQLQQSGPELVRPGVSVKISCKGSSYKFTDYAMHWVKQSHAKSLEWIGVISTYYGNVKYNQKFKGKATMTVDKSSSTAYMELARLTSEDSAVYYCARSYGSYLDYWGQGTSVTVSS
VL: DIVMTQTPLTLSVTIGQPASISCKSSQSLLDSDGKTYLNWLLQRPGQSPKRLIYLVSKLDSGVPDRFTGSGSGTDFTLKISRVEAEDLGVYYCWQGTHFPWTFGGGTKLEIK
notes: as for B1

These binders were tested against T1, AR1FLAG (solubilized receptor: extracellular domain of human AR1 with FLAG tag at the C terminus), … (human, UniProt P17181 28-436, biotin-labeled (NHS-PEO4-Biotin)) (assay: phage ELISA, biotin-labeled AR1FLAG on streptavidin plates, anti-M13-HRP detection).
T1 construct: extracellular domain; captured on streptavidin plates for the phage ELISA; also called biotin-labeled AR1FLAG; AR1 chain of type-I interferon receptor; not shown: FLAG tag at the C terminus
T1 sequence (looked up): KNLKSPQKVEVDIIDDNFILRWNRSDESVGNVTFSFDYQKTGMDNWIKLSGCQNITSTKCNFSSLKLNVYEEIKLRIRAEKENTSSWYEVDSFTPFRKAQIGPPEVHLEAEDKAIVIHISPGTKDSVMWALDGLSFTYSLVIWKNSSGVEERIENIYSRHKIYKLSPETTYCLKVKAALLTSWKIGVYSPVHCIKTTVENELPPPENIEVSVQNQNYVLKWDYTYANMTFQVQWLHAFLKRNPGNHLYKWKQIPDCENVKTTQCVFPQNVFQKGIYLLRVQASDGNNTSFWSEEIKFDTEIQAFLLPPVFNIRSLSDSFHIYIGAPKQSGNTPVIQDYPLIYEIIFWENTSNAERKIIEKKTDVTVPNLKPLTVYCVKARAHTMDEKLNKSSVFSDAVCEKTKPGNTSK
Protocol: (§1) The single colonies described above were inoculated to 150 μl of 2×YTAG and cultured at 30° C. overnight. 51 μl of the cultures was inoculated to 500 μl of 2×YTAG, and incubated at 37° C. for two hours. Then 100 μl of 2×YTAG containing 2.5×10⁹ pfu of helper phage and 0.3 μl of 1 mol/l IPTG was added to the cultures, and allowed to stand at 37° C. for 30 minutes. The cultures were then incubated at 30° C. overnight, and their culture supernatant was subjected to ELISA. StreptaWell 96-well microtiter plates (Roche) were coated overnight with 100 μl of PBS containing 1.0 μg/ml biotin-labeled AR1FLAG or AR2FLAG The plates were washed with PBST to remove free antigens, and then blocked overnight with 200 μl of 2% M-PBS. 2% M-PBS was removed and the culture supernatant was added to the plates. The plates were allowed to stand for 40 minutes to bind with the antibodies. After the plates were washed, bound phages were detected using HRP-conjugated anti-M13 antibody (Amersham Pharmacia Biotech) diluted with 2% M-PBS and BM blue POD substrate (Roche). The reaction was stopped by adding sulfuric acid, and absorbance was determined at 450 nm.

Binder | binding result
B1 | binds
B2 | binds

The binders below were run against T2, AR2FLAG (solubilized receptor: extracellular domain of human AR2 with FLAG tag at the C terminus), … (human, UniProt P48551 27-243, biotin-labeled (NHS-PEO4-Biotin)) (assay: phage ELISA, biotin-labeled AR2FLAG on streptavidin plates, anti-M13-HRP detection).
T2 construct: extracellular domain; captured on streptavidin plates for the phage ELISA; also called biotin-labeled AR2FLAG; AR2 chain of type-I interferon receptor; not shown: FLAG tag at the C terminus
T2 sequence (looked up): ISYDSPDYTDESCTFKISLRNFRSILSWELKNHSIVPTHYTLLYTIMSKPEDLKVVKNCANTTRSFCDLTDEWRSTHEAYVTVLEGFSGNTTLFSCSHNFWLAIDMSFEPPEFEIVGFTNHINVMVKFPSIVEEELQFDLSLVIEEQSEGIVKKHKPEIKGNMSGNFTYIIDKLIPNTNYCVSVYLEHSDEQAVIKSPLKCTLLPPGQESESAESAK
Protocol: as §1

Binder | binding result
B3 | binds
B4 | binds
B5 | binds
B6 | binds
B7 | binds
B8 | binds
B9 | binds
B10 | binds
B11 | binds
B12 | binds
